This passage reports Kd, dH and stoichiometry N results from paper PMC8167360.

As a reminder, the Kd is a measure of binding affinity in units of concentration. The stoichiometry N is the number of molecules, sites or subunits per partner or assembly.

The target of this experiment is X domain (Mac1) plus Mac2 (Mac1–2) of SARS-CoV Nsp3, purified (SARS-CoV (strain Frankfurt)). Nature of the experiment: ITC; […] ([…]) […] ([…]) […]; 25°C; VP-ITC; 20 mM Tris–HCl pH 8.5, 150 mM NaCl.

B1: middle domain of human Paip1 (Paip1M), purified (domain or fragment)
chain: GSHMASMTGGQQMGRGSTLSEYVQDFLNHLTEQPGSFETEIEQFAETLNGCVTTDDALQELVELIYQQATSIPNFSYMGARLCNYLSHHLTISPQSGNFRQLLLQRCRTEYEVKDQAAKGDEVTRKRFHAFVLFLGELYLNLEIKGTNGQVTRADILQVGLRELLNALFSNPMDDNLICAVKLLKLTGSVLEDAWKEKGKMDMEEIIQRIENVVLDANCSRDVKQMLLKLVELRSS
In the case of B1, the dissociation constant (Kd) was determined as 18.6 µM, the dH was -3.73 kcal/mol and the stoichiometry N was determined as 1.14.
